Data reported in doi:10.1101/2025.05.28.656718 (bioRxiv, 2025).

B1: Recombinant SARM1 (affinity tags removed by TEV protease) (natural protein, human, UniProt Q6SZW1 28-724, looked up)
chain: LAVPGPDGGGGTGPWWAAGGRGPREVSPGAGTEVQDALERALPELQQALSALKQAGGARAVGAGLAEVFQLVEEAWLLPAVGREVAQGLCDAIRLDGGLDLLLRLLQAPELETRVQAARLLEQILVAENRDRVARIGLGVILNLAKEREPVELARSVAGILEHMFKHSEETCQRLVAAGGLDAVLYWCRRTDPALLRHCALALGNCALHGGQAVQRRMVEKRAAEWLFPLAFSKEDELLRLHACLAVAVLATNKEVEREVERSGTLALVEPLVASLDPGRFARCLVDASDTSQGRGPDDLQRLVPLLDSNRLEAQCIGAFYLCAEAAIKSLQGKTKVFSDIGAIQSLKRLVSYSTNGTKSALAKRALRLLGEEVPRPILPSVPSWKEAEVQTWLQQIGFSKYCESFREQQVDGDLLLRLTEEELQTDLGMKSGITRKRFFRELTELKTFANYSTCDRSNLADWLGSLDPRFRQYTYGLVSCGLDRSLLHRVSEQQLLEDCGIHLGVHRARILTAAREMLHSPLPCTGGKPSGDTPDVFISYRRNSGSQLASLLKVHLQLHGFSVFIDVEKLEAGKFEDKLIQSVMGARNFVLVLSPGALDKCMQDHDCKDWVHKEIVTALSCGKNIVPIIDGFEWPEPQVLPEDMQAVLTFNGIKWSHEYQEATIEKIIRFLQGRSSRDSSAGSDTSLEGAAPMGPT

Key:
[1] = target: B1; assay: SPR
His-tagged PKM1 = His-tagged PKM1 (human, UniProt P14618-2 1-531); assay: AlphaScreen or HTRF

Binder	Kd [1]	IC50 (His-tagged PKM1)
Recombinant PKM1 (His-SUMO tag removed) (enzyme) not shown	2.89 µM	
B1		3.46 µM
Recombinant PKM2 (His-SUMO tag removed) (enzyme) not shown	1.31 µM	
